From paper PMC8432736
pKd: −log10 of the molar value.

Target: Recombinant active ACE2-Fc (ACRO biosystems, AC2-H5257) (human) (UniProt Q9BYF1)
Experiment: SPR

UniProt Q9BYF1, sequence (Q9BYF1 18-740): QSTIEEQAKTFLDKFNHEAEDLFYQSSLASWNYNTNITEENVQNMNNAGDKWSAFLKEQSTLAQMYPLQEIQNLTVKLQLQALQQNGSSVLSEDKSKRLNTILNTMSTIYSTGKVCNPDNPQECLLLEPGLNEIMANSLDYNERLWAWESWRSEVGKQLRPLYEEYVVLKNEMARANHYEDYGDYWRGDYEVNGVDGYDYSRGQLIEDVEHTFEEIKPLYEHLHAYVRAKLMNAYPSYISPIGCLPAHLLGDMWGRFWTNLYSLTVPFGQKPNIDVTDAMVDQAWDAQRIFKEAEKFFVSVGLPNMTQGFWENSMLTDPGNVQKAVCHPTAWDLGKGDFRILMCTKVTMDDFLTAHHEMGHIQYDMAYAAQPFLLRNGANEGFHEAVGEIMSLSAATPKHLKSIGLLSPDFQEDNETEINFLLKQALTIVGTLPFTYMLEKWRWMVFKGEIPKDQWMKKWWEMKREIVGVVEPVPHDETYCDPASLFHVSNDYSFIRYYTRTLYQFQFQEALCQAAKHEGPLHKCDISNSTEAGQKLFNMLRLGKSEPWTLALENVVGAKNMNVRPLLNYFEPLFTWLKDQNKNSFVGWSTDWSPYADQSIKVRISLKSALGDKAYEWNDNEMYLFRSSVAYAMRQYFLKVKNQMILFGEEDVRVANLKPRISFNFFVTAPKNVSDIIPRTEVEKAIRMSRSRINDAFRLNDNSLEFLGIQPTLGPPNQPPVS

Substance Angiotensin II (peptide) has a pKd of 6.93.
